Laboratory results reported in article PMC5397884 (Biochemistry, 2017).
Where “and” joins values, the source holds several entries; their conditions need not be identical. Equal values may be shown once. Where no end group is shown, it is not given here.

Legend:
[1] = molecular target: GmPOPB-S577A (inactive mutant) (Galerina marginata) (UniProt H2E7Q8); experiment: ITC; 200 uM peptide in the syringe titrated into 20 uM protein in the cell; 20 °C; 50 mM Tris (pH 8.0), 50 mM NaCl, 10 mM DTT; single-site model, n fixed at 1.0
[2] = tested on: CC[C@H](C)[C@H](N)C(=O)N[C@@H](Cc1c[nH]c2ccccc12)C(=O)NCC(=O)N[C@H](C(=O)NCC(=O)N[C@@H](CS)C(=O)N[C@@H](CC(N)=O)C(=O)N1CCC[C@H]1C(=O)N[C@@H](Cc1c[nH]c2ccccc12)C(=O)N[C@H](C(=O)N[C@@H](C)C(=O)N[C@@H](CCC(=O)O)C(=O)N[C@@H](Cc1c[nH]cn1)C(=O)N[C@H](C(=O)N[C@@H](CC(=O)O)C(=O)N[C@@H](CCC(N)=O)C(=O)N[C@H](C(=O)N[C@@H](CC(C)C)C(=O)N[C@@H](C)C(=O)N[C@@H](CO)C(=O)NCC(=O)N[C@@H](CC(N)=O)C(=O)N[C@@H](CC(=O)O)C(=O)N[C@H](C(=O)N[C@@H](CS)C(=O)O)[C@@H](C)CC)[C@@H](C)O)C(C)C)[C@@H](C)O)[C@@H](C)CC; experiment: purified protein, by the assay type; details: 50 mM NaCl, 10 mM DTT, duplicate
His680 = His680 (UniProt position 680, DTKAGHGAGKP); experiment: other (titration of the catalytic histidine; the title of ref 41 indicates inhibitor binding); details: cited from earlier work
GmPOPB [3] = molecular target: T1, GmPOPB (Galerina marginata, UniProt H2E7Q8); experiment: biochemical; details: Figure S10, fit to Equation S4; activity normalized to no inhibitor (100%) and 50 µM recognition sequence (0%)
T1 construct: His tag (TEV-cleavable) (cleaved yes); made in house; host or cells: E. coli BL21(DE3)

GmPOPB [4] = molecular target: T1, GmPOPB; experiment: Global fitting by numerical integration of quenched-flow and stopped-flow data; assay type: biochemical; details: read-out: k–5 (tail association), Kintek best-fit
[5] = molecular target: GmPOPB–tail complex (GmPOPB-S577A pre-mixed with the peptide tail) (Galerina marginata) (UniProt H2E7Q8); experiment: stopped-flow tryptophan fluorescence; global fitting by numerical integration (KinTek Global Kinetic Explorer) of stopped-flow binding and quenched-flow turnover data together; 20 °C; k1/k-1 and k5/k-5 linked by the ITC Kd values; k4 and k-4 fixed at best-fit values
[6] = molecular target: GmPOPB–tail complex (GmPOPB-S577A pre-mixed with the peptide tail) (Galerina marginata) (UniProt H2E7Q8); experiment: stopped-flow tryptophan fluorescence; analytical fitting; excitation 285 nm, emission above 320 nm; 20 °C; 50 mM Tris-HCl (pH 8.0), 50 mM NaCl, 10 mM DTT; constants calculated from rate constants; Kov is an apparent dissociation constant for a two-step binding process
porcine POP = details: cited from earlier work
[7] = molecular target: T2, Prolyl oligopeptidase B from Galerina marginata (GmPOPB) (Galerina marginata, UniProt H2E7Q8 1-730); experiment: ITC; 200 uM peptide in the syringe titrated into 20 uM protein in the cell; 20 °C; 50 mM Tris (pH 8.0), 50 mM NaCl, 10 mM DTT; single-site model, n fixed at 1.0; details: both partners purified
T2 sequence (looked up): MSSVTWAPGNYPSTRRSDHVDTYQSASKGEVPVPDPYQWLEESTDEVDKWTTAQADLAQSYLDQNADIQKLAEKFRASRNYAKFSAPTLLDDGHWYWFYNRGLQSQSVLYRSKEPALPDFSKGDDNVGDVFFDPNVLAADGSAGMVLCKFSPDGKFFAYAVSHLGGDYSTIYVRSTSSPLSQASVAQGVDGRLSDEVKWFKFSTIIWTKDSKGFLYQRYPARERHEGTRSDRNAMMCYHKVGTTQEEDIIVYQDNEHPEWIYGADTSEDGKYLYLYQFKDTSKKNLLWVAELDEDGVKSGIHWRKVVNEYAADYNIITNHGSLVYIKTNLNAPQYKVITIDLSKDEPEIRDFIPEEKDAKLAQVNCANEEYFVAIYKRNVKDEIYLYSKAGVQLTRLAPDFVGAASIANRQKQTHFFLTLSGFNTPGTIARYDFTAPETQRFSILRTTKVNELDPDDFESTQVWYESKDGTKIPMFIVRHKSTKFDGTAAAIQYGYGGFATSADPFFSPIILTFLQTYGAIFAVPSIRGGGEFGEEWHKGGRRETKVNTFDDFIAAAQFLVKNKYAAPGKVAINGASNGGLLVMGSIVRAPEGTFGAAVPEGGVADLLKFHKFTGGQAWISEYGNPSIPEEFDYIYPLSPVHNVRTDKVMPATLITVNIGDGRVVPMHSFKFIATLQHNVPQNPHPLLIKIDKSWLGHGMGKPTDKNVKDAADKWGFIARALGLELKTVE

[8] = molecular target: T2, Prolyl oligopeptidase B from Galerina …; experiment: stopped-flow tryptophan fluorescence; global fitting by numerical integration (KinTek Global Kinetic Explorer) of stopped-flow binding and quenched-flow turnover data together; 20 °C; k1/k-1 and k5/k-5 linked by the ITC Kd values; k4 and k-4 fixed at best-fit values; details: both partners purified
[9] = molecular target: T2, Prolyl oligopeptidase B from Galerina …; experiment: ITC; 200 uM peptide in the syringe titrated into 20 uM protein in the cell; 20 °C; 50 mM Tris (pH 8.0), 50 mM NaCl, 10 mM DTT; single-site model, n fixed at 1.0; details: both partners purified; remark: listed apart in the source
[10] = molecular target: T2, Prolyl oligopeptidase B from Galerina …; experiment: stopped-flow tryptophan fluorescence; analytical fitting; excitation 285 nm, emission above 320 nm; 20 °C; 50 mM Tris-HCl (pH 8.0), 50 mM NaCl, 10 mM DTT; constants calculated from rate constants; Kov is an apparent dissociation constant for a two-step binding process; details: both partners purified
[11] = molecular target: T3, Prolyl oligopeptidase B from Galerina marginata (GmPOPB) (Galerina marginata, UniProt H2E7Q8 1-730); experiment: stopped-flow tryptophan fluorescence; 2 μM GmPOPB, peptide tail 0.5-20 μM, 20 °C, excitation 285 nm, emission above 320 nm; analytical fitting (replots of kobs and of amplitudes against tail concentration); details: both partners purified
T3 sequence (looked up): T2 sequence (looked up)

[12] = molecular target: T3, Prolyl oligopeptidase B from Galerina …; experiment: stopped-flow tryptophan fluorescence; 2 μM GmPOPB, peptide tail 0.5-20 μM, 20 °C; this experiment fitted individually by numerical integration (KinTek Global Explorer, Fitspace boundaries), no constraints; details: both partners purified
[13] = molecular target: T3, Prolyl oligopeptidase B from Galerina …; experiment: stopped-flow tryptophan fluorescence; 2 μM GmPOPB, peptide tail 0.5-20 μM, 20 °C, excitation 285 nm, emission above 320 nm; analytical fitting (replots of kobs and of amplitudes against tail concentration); details: both partners purified; remark: listed apart in the source
[14] = other: 20 °C, 50 mM Tris-HCl (pH 8.0), standard error, 20.0 °C

Chain of 25mer peptide substrate of GmPOPB (core plus peptide tail of the amanitin precursor) (A0A067SLB9 11-35 limits assumed): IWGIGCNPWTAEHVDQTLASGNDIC

25mer peptide substrate of GmPOPB (core plus peptide tail of the amanitin precursor)
stoichiometry N [1]: 1

GmPOPB (Galerina marginata CBS 339.88)
Km [2, 14]: 55 µM and 55.4 ± 18.6 µM | kcat [2, 14]: 0.23 ± 0.03 s^–1 | Km ([2]; other: H2O, 37 °C, 50 mM Tris (pH 8.0), LC–MS, 37.0 °C): 51 µM

Prolyl oligopeptidase (prolyl endopeptidase, POP) (Sus scrofa)
pKa (His680): 6.25

WTAEHVDQTLASGNDIC [peptide tail]
IC50 (GmPOPB [3]): 320 ± 100 nM | kon (GmPOPB [4]): 3.22e+06 ± 10000 M⁻¹ s⁻¹

eight-amino acid cyclic peptide product of the GmPOPB macrocyclization reaction
k3 (slower step of the two-step binding, direction of release of the cyclic peptide) [5]: 12.3 s^–1 | k4 (fast bimolecular step of the two-step binding, dissociation of the cyclic peptide) [5]: 100 s^–1 | k-3 (slower step of the two-step binding, direction of binding of the cyclic peptide) [5]: 0.78 μM^–1 s^–1 | k-4 (fast bimolecular step of the two-step binding, association of the cyclic peptide) [5]: 60 μM^–1 s^–1 | Kd [6]: 99.2 nM

porcine POP: Sus scrofa (porcine) prolyl oligopeptidase
activation energy, porcine POP (porcine POP; depending on the substrate used): 14 to 20 kcal mol^–1 | pKa (first), porcine POP (porcine POP; dipeptide substrate): 5 | pKa (second), porcine POP (porcine POP; dipeptide substrate): 7 | pKa (third), porcine POP (porcine POP; dipeptide substrate): 9.5 | pKa of catalytic His680, porcine POP (porcine POP; titration of the catalytic histidine): 6.25

WTAEHVDQTLASGNDIC [peptide tail (17-amino acid C-terminal recognition sequence)]
Kd [7]: 442 nM | koff [8]: 1.44 s⁻¹ | stoichiometry N [9]: ~1 | Kd [10]: 731 nM

WTAEHVDQTLASGNDIC [Peptide tail (WTAEHVDQTLASGNDIC)]
koff [11]: 3.54 s⁻¹ | kon [11]: 4.84e+06 M⁻¹ s⁻¹ | koff [12]: 0.58 s⁻¹ | kon [12]: 4.69e+06 M⁻¹ s⁻¹ | Kd [13]: 322 ± 37.5 nM
